{"source": "paper PMC12292525", "about": "“Identification, Cloning, and Functional Characterization of Carotenoid Cleavage Dioxygenase (CCD) from Olea europaea and Ipomoea nil” (Biology, 2025)", "tested_on": "CC1=C(/C=C/C(C)=C/C=C/C(C)=C/C=C/C=C(C)/C=C/C=C(\\C)C=O)C(C)(C)CCC1", "assay": "beta-ionone formation, Michaelis-Menten nonlinear fit", "format": "biochemical, Olea europaea", "conditions": "optimal reaction conditions (pH 9.5 Gly-NaOH, 45 °C reported as optimum), O2 co-substrate", "excerpt": "beta-ionone formation, Michaelis-Menten nonlinear fit on OeCCD1", "data": [{"substance": "OeCCD1 (Olea europaea var. sylvestris)", "values": [{"measurement": "Km", "result": 820, "unit": "µM"}, {"measurement": "Vmax", "result": 2.3, "unit": "µmol/min/mg"}, {"measurement": "kcat", "result": 3.35, "unit": "s⁻¹"}, {"measurement": "kcat/Km", "result": 4090, "unit": "M⁻¹ s⁻¹"}]}]}
